Measurements taken from publication PMC7251119 (Nature Communications, 2020).

B3: (His)10-MBP-DotL(656-783)–IcmSW–LvgA (complex)
chain 1: GQNEPEPVEDIVEEEVEGALTIFSKLRIDPNAPPILVADKEVFSEPLLPINETRNQMITIERLAGAKDKYAGTVANELIKDFQIATSYPPEERDVIDVQELTGIIRDLSAKISAEREKANKKAAEELT
chain 2: MERDISKCMAKIAASMNAKFYLNDRFVSFDEVFSETGLLPAIAKRADQLCSLCLGYGLGATYDESEGALLGIRVVFDEVTPNVLRLLCMTDVMNELIQGGPSRDYTPLDELMYD
chain 3: MPDLSHEASAKYWFEYLDPMIYRVITFMESVENWTLDGNPELEEAMKQLGQELDDIEKIDLGLLAEEDKFIRIVGNIKSGRGLRLLQAIDTVHPGSASRVLIHAEETSLSSSDPAGFFLKRNIVFERLRLLSRVFCQYRLKLVLRALEGDE
chain 4: MADGDIEIKAGFVDTDLDDRKLTMIDDLNNPLAIVERVYLIWWHWADFHLHVISPHIDTITPAIVIEPELIPGSNDHEFVYSIHDSGSKLSTSKSQDMFSAGMSMCKLFYTIEKMVYILVERLKSGGVSMEAEVQIAFAGHEIAQRKAFESIINLPYNVVVTNFDPGIWGEKYLQNVKRLADKGYGYPPESPRKIYMHPVSSGTTARK
notes: copies: + + +

Tests used:
[1] = molecular target: the molecule itself; assay: SEC; […]; 20 mM Tris-HCl (pH 7.5) plus 100 mM NaCl or 300 mM NaCl; […]
[2] = molecular target: B3; assay: native gel or EMSA; conditions: both partners purified
VpdB(11-590) = VpdB(11-590) (Legionella pneumophila, UniProt Q5ZW60 11-590); assay: BLI; conditions: both partners purified
SetA = molecular target: T1, SetA (Legionella pneumophila, UniProt Q5ZU30 1-644); assay: native gel or EMSA; conditions: both partners purified
T1 sequence: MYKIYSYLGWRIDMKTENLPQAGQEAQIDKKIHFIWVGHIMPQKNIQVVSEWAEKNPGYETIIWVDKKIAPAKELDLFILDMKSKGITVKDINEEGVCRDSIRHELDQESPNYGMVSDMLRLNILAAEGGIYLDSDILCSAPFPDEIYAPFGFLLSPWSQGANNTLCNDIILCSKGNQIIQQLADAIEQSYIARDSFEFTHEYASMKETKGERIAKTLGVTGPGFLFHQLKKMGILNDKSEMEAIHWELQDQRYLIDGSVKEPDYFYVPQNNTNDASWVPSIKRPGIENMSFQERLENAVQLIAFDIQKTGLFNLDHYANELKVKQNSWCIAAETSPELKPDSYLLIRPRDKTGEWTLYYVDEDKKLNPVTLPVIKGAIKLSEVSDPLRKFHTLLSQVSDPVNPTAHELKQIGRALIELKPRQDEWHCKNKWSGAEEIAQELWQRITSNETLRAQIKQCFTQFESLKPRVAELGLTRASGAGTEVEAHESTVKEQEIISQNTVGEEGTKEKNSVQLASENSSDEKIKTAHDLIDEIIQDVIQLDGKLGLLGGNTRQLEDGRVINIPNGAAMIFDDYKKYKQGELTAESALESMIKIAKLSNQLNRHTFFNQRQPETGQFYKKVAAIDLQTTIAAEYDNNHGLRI

B1: SetA(480-644) (domain or fragment)
chain: GAGTEVEAHESTVKEQEIISQNTVGEEGTKEKNSVQLASENSSDEKIKTAHDLIDEIIQDVIQLDGKLGLLGGNTRQLEDGRVINIPNGAAMIFDDYKKYKQGELTAESALESMIKIAKLSNQLNRHTFFNQRQPETGQFYKKVAAIDLQTTIAAEYDNNHGLRI
How did the “stoichiometry N” value [1] turn out when B1 was run?
Its value is 2.

B2: SetA(480-644) (domain or fragment)
chain: GAGTEVEAHESTVKEQEIISQNTVGEEGTKEKNSVQLASENSSDEKIKTAHDLIDEIIQDVIQLDGKLGLLGGNTRQLEDGRVINIPNGAAMIFDDYKKYKQGELTAESALESMIKIAKLSNQLNRHTFFNQRQPETGQFYKKVAAIDLQTTIAAEYDNNHGLRI
Does B2 bind [2]?
Result: binds

Does ENETLVSSFKQRLQNIKG [(His)10-YFP-SidH(2183-2200)] bind [2]?
Result: binds

Which Kd (VpdB(11-590)) does the source give for B3 here?
The Kd was about 400 nM.

Does B3 bind (SetA)?
Result: binds
